Experimental data: patent publication US20250282887A1 (Amgen, published 2025)

T1: human MAGEB18 (human, UniProt Q96M61 1-343)
T1 construct: whole, on cells; FFPE cell pellets; also called MAGE-18
T1 sequence (looked up): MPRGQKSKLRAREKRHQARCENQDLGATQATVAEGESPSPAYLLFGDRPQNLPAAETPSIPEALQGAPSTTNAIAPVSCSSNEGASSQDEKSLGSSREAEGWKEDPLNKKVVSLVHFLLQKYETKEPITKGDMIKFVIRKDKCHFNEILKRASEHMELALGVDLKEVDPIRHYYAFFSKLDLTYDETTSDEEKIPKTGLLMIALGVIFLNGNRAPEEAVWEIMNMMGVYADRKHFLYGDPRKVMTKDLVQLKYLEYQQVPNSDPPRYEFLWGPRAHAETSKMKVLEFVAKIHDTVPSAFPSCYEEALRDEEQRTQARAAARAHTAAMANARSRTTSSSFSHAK

T2: Human MAGEB2 (Melanoma-associated antigen B2) (human, UniProt O15479 1-319)
T2 construct: Intracellular antigen detected by IHC in FFPE material: CHO cells transfected with human MAGEB2 (mCherry vector with Myc/DDK tags, or ORF without tags)
T2 sequence: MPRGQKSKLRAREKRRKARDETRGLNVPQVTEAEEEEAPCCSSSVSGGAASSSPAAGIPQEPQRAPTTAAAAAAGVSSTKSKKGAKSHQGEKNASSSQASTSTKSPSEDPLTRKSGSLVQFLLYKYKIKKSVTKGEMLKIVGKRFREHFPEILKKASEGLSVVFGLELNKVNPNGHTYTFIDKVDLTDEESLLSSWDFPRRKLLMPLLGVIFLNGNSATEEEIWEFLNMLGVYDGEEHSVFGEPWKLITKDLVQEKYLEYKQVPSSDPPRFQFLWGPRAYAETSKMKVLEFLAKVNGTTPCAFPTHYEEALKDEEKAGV

T3: human MAGEA1 (human, UniProt P43355 1-309)
T3 construct: whole, on cells; FFPE cell pellets
T3 sequence (looked up): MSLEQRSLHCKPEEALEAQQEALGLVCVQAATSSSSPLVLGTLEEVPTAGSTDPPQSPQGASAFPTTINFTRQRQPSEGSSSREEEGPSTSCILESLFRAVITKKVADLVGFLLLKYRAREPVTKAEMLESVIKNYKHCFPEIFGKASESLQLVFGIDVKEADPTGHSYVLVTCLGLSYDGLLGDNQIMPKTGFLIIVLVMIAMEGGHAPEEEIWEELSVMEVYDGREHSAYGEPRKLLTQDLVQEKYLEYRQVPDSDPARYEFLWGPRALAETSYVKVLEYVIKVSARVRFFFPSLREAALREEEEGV


How the values were obtained:
human MAGEB18 = target: T1, human MAGEB18; test: IHC, FFPE CHO cells transfected with human MAGEB18
Description: (§1) FFPE samples were sectioned at 4 μm and mounted on positive charged glass slides. After mounting, paraffin sections were air-dried at room temperature. FFPE TMA samples were received as freshly sectioned and mounted on glass slides. The fully automated IHC assay was performed on a Discovery Ultra Stainer (Ventana Medical Systems, Tucson, AZ) using Ventana Anti-Rabbit HQ (cat #760-4815), Ventana Anti-HQ HRP (cat #760-4820), and Ventana Antibody Diluent with Casein (cat #760-219) (Ventana Medical Systems, Tucson, AZ). The slides were baked on the Discovery Ultra Stainer at 60° C. for 8 minutes, de-paraffinized with Ventana Discovery wash (cat #950-510) for 3 cycles (8 minutes each) at 69° C., and underwent cell conditioning (target retrieval) at 95° C. for 16 minutes (for cell arrays) or 32 minutes (tissues or TMAs) in CC1 buffer (cat #950-500). Following this, slides were incubated with Background Sniper (cat #BS966M, Biocare Medical, Pacheco, CA) in a Ventana Option Prep kit (cat #771-751) for 28 minutes, incubated with CM inhibitor (a part of the Ventana DAB kit cat #760-159) for 12 minutes, and incubated for 1 h at RT with MAGE-B2 antibody diluted with Ventana diluent with Casein in a Ventana Prep kit (cat #770-001) (working concentration at 0.1 μg/ml for cell pellet, or 1-5 ug/ml for tissues) or with a matched concentration of isotype control Rabbit IgG1 antibody. Following this, slides were incubated with the Ventana Anti-Rabbit HQ (cat #760-4815) for 28 minutes at RT, Ventana Anti-HQ HRP (cat #760-4820) for 28 minutes at RT, and signals detected with Ventana DAB chromogen kit (cat #760-159) for 5 minutes at RT. Slides were counterstained with Ventana Hematoxylin II (cat #5266726001) for 8 minutes and Ventana Bluing reagent (cat #526676900) for 4 minutes. Slides were coverslipped and digitized using an Aperio AT2 scanner (Leica Biosystems Inc, Buffalo Grove, IL).

human MAGEA6 = target: T4, human MAGEA6 (human, UniProt P43360 1-314); test: IHC, FFPE CHO cells transfected with human MAGEA6
T4 construct: whole, on cells; FFPE cell pellets
T4 sequence (P43360 whole entry): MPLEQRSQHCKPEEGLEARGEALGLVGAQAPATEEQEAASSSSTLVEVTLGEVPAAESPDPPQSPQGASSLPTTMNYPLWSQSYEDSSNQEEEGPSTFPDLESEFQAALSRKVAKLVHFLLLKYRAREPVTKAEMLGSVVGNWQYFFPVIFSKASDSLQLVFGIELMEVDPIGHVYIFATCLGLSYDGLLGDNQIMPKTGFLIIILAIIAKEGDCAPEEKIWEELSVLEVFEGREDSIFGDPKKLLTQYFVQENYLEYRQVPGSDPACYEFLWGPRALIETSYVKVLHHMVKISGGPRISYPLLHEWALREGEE
Description: as §1

[1] = target: T2, Human MAGEB2 (Melanoma-associated …); test: IHC on FFPE UACC-257 cells (endogenous MAGEB2)
Description: as §1

human MAGEA1 = target: T3, human MAGEA1; test: IHC, FFPE CHO cells transfected with human MAGEA1
Description: as §1

[2] = target: T2, Human MAGEB2 (Melanoma-associated …); test: IHC on FFPE VMRC-LCD cells (endogenous MAGEB2)
Description: as §1

Binder | binding result (human MAGEB18) | binding result (human MAGEA6) | IHC % Frequency [1] | binding result (human MAGEA1) | IHC % Frequency [2] | IHC Intensity [2] | IHC Intensity [1]
1I14 (antibody, V domains shown, also called MAGE-B2 (1i14)) VH: QSVEESGGRLVTPGTPLTLTCTISGFSLSSYAMSWVRQAPGKGLEWIGSIGGGGSAVYASWAKGRFTISKTSTTVDLRITSPTTEDTAMYFCGRGFYSIDLWGPGTLVTVSS VL: DVVMTQTPASVEATVGGTVTIKCQSSQSVYDNNALAWYQQNAGQRPRLLIYGASTLASGVPSRFSASGSGTEFTLTISDLECADAATYYCQCTYYVSSYQNDFGGGTEVVVKG | no binding (tested: 0.1 µg/ml) | no binding (tested: 0.1 µg/ml) | 0% | no binding (tested: 0.1 µg/ml) | 0% | 0 | –
1C3 (antibody, V domains shown, also called MAGE-B2 (IC3); anti-MAGEB2 antibody 1C3) VH: QSLEESGGGLVQPEGSLTLTCTAFGVTLTNYYICWVRQAPGKGLEWVGCIDNANGRTYYASWAKGRFTISKTSSTTGTLQMTSLTAADTATYFCARSLATPLWGPGTLVTVSS VL: DIVMTQTPSSVEAAVGGTVTIKCQASQNISSYLAWYQQKPGQPPKLLIYRASTLASGVPSRFKGSGSGTQFTLTISDLECADAATYYCQSYDDSRSSNFFYAFGGGTEVVVKG | no binding (tested: 0.1 µg/ml) | no binding (tested: 0.1 µg/ml) | 0% | no binding (tested: 0.1 µg/ml) | 0% | 0 | –

Next, values leading:

binding result (human MAGEB18) | binding result (human MAGEA6) | IHC % Frequency [1] | binding result (human MAGEA1) | IHC % Frequency [2] | IHC Intensity [2] | IHC Intensity [1] | Binder
no binding (tested: 0.1 µg/ml) | no binding (tested: 0.1 µg/ml) | 0% | no binding (tested: 0.1 µg/ml) | 0% | 0 | 0 | 4G17 (antibody, IgG1, V domains shown, Rabbit monoclonal IgG1; Tested as supernatant and as small batch purified antibody; also called MAGE-B2 (4G17); anti-MAGEB2 antibody 4G17) VH: QSLEESGGGLVQPEGSLTLTCTASGVTLSNYYICWVRQAPGKGLEWIGCIDNVNGRTYYASWAKGRFTISKTSSTTGTLQMTSLTAADTATYFCARSLATPLWGPGTLVTVSS VL: DIVMTQTPASVEAAVGGTVTIKCQASQNIDSYLAWYQQKPGQPPKLLIYRASTLASGVPSRFKGSGSGTEFTLTISDLECADAATYYCQSYDDSRSSSFFYGFGGGTEVVVK
no binding (tested: 0.1 µg/ml) | no binding (tested: 0.1 µg/ml) | 0% | no binding (tested: 0.1 µg/ml) | 0% | 0 | 0 | 1J15 (antibody, IgG1, V domains shown, Rabbit monoclonal IgG1; Tested as supernatant and as small batch purified antibody; also called MAGE-B2 (IJ15); anti-MAGEB2 antibody 1J15) VH: QSLEESGGGLVQPEGSLTLTCTAFGFTLNNYYICWVRQAPGKGLEWIACIDNANGRTYYASWAKGRFTISKTSSTTVTLQMTSLTAADTATYFCARSLSTPLWGPGTLVTVSS VL: DIVMTQTPASVEAAVGGTVTIKCQASQSISSYLSWYQQKPGQPPKLLIYRASTLASGVPSRFRGSGSGTQFTLTISDLECADAATYYCQSYDDSSDNNFFYGFGGGTEVVVR
